Test results published in patent publication US7144983.
pIC50: −log10 of the molar value.

Target: trkA + p75 receptors on rat PC12 pheochromocytoma cells (rat) (UniProt P35739)
Experiment: 125I-hNGF displacement, PC12 cells (trkA+p75), 4 C

trkA + p75 receptors on rat PC12 pheochromocytoma cells (rat), sequence (P35739 33-799, chain 1 of 2): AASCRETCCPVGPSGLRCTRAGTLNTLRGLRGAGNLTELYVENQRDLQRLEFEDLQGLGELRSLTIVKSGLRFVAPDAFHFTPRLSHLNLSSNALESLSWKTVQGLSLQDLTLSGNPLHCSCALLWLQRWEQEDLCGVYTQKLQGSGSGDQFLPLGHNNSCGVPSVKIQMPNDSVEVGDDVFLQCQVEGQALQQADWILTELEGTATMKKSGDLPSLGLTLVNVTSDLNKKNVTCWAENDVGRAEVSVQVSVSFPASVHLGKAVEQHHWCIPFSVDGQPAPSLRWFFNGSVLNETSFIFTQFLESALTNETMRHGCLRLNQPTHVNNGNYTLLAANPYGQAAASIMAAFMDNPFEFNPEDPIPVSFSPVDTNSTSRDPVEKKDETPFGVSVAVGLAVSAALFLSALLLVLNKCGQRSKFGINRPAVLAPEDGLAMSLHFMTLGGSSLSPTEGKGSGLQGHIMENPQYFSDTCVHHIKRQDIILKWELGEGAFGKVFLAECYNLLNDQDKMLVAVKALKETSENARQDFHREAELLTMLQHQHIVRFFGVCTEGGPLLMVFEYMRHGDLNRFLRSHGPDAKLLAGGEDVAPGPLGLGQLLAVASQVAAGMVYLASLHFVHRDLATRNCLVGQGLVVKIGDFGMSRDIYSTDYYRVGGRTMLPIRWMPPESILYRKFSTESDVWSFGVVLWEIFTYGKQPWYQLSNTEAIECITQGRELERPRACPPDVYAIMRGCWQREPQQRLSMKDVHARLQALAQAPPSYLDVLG
trkA + p75 receptors on rat PC12 pheochromocytoma cells (rat), sequence (P07174 30-425, chain 2 of 2, further chain): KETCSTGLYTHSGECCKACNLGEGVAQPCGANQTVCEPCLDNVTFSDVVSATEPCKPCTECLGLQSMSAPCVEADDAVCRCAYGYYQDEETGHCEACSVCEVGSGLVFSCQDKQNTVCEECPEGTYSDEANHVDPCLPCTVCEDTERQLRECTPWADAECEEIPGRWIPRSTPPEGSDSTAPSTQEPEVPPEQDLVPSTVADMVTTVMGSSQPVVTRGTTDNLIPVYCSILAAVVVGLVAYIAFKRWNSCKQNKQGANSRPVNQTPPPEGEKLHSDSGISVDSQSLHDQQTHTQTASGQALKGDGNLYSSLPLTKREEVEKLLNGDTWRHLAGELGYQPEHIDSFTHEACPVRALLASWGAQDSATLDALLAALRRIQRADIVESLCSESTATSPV

| Substance | pIC50 |
| --- | --- |
| hNGF Mut 4 (H4A, H8A, R9A) (from UniProt P01138 122-241) (ligand) | 9.41 |
| hNGF Mut 1 (H4A) (from UniProt P01138 122-241) (ligand) | 9.74 |
| hNGF (10-118) (from UniProt P01138 131-239) (ligand) | 8.39 |
| hNGF Mut 2 (H4D) (from UniProt P01138 122-241) (ligand) | 9.37 |

The remaining lines, values ahead:

| pIC50 | Substance |
| --- | --- |
| 10.22 | mNGF (1-118) (from UniProt P01139 122-239) (ligand) |
| 9.74 | hNGF Mut 3 (R9A) (from UniProt P01138 122-241) (ligand) |
| 10.30 | hNGF (1-118) (from UniProt P01138 122-239) (ligand) |
| 9.89 | hNGF (6-118) (from UniProt P01138 127-239) (ligand) |
